This passage reports EC50 results from patent US20130101549A1 (Biogen, published 2013).

By EC50 is commonly meant the midpoint of the concentration-response curve. Low readings indicate a more potent agent, high ones a less potent agent.

Experiment [1] addresses T1, murine HVEM-Ig (mouse, UniProt Q80WM9 39-210).
T1 construct: Expressed and purified in house
T1 sequence (looked up): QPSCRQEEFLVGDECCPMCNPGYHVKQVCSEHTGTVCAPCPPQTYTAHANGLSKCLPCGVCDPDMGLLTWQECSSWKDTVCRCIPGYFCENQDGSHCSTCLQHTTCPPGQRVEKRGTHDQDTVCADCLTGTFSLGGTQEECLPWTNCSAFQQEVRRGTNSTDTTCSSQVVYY
Description: ELISA, muHVEM-Ig coated at 2 ug/ml, HRP goat anti-human kappa; the number is C of the printed 4-P fit (A 0.036, B 0.816, D 1.534, R^2 0.997); Fab-Light is BIIB71F10-132 by paragraph 503. The protocol:
(§1) Human and murine ErbB2-Fc were obtained from R&D Systems. Wells of 96-well plates were coated with 2 ug/ml or 0.2 ug/ml of human or murine HER2-Fc by incubation overnight at 4-8° C. with either of these six proteins (80 ul/well of a 0.2 or 2 ug/ml solution in PBS). Wells were emptied, filled completely with a solution of PBS with 1% BSA (blocking buffer) and incubated at room temperature for 1 hour. Wells were emptied, washed twice PBS containing 0.05% Tween 20 (PBST) and filled with the samples (80 ul/well of 3× dilution series of the standard and supernatants in blocking buffer) prepared in another 96-well plate. After a 2-hour incubation at room temperature, the wells were emptied, washed three times with PBST and filled with a solution of HRP-conjugated goat pAbs anti-human kappa chain (80 ul/well of a 2000-fold dilution in blocking buffer). After 1-hour incubation, the wells were emptied and filled with a solution of HRP substrate prepared freshly. The color was left to develop for 3 minutes and was stopped by addition of an equal volume of 1N H₂SO₄. Absorbance was measured at 450 nm using a Plate Reader (SpectraMax, Molecular Devices). The data was processed and graphs were created using SoftMax Pro software.
(§2) Human and murine HVEM-Ig were expressed and purified in house.

Experiment [2] has as its target T1, murine HVEM-Ig. Description: ELISA, muHVEM-Ig coated at 0.2 ug/ml, HRP goat anti-human kappa; the number is C of the printed 4-P fit (A 0.045, B 0.716, D 1.298, R^2 0.996); Fab-Light is BIIB71F10-132 by paragraph 503. The procedure: as §1, §2

B1: 71F10 Fab-hLIGHT fusion with the (G4S)4 linker (BIIB71F10-132) (other)
heavy: EVQLLESGGGLVQPGGSLRLSCAASGFTFSSYGMVWVRQAPGKGLEWVSSISSSGGLTWYADSVKGRFTISRDNSKNTLYLQMNSLRAEDTAVYYCASPPGIAVARDYWGQGTLVTVSSASTKGPSVFPLAPSSKSTSGGTAALGCLVKDYFPEPVTVSWNSGALTSGVHTFPAVLQSSGLYSLSSVVTVPSSSLGTQTYICNVNHKPSNTKVDKKVEPKSCDKGGGGSGGGGSGGGGSGGGGSNPAAHLTGANSSLTGSGGPLLWETQLGLAFLRGLSYHDGALVVTKAGYYYIYSKVQLGGVGCPLGLASTITHGLYKRTPRYPEELELLVSQQSPCGRATSSSRVWWDSSFLGGVVHLEAGEEVVVRVLDERLVRLRDGTRSYFGAFMV
light: DIQMTQSPSSLSASVGDRVTITCRASQGISNYLAWYQQKPGKVPKLLIYAASTLQSGVPSRFSGSGSGTDFTLTISSLQPEDVATYYCQKYNSALLTFGGGTKVEIKRTVAAPSVFIFPPSDEQLKSGTASVVCLLNNFYPREAKVQWKVDNALQSGNSQESVTEQDSKDSTYSLSSTLTLSKADYEKHKVYACEVTHQGLSSPVTKSFNRGEC
notes: Trimer of Fab-LIGHT units; also called 71F10 Fab-(G4S)4-LIGHT
As for B1, the EC50 in experiment [1] amounted to 0.0025 µg/mL; in experiment [2], 0.0263 µg/mL.
